For one assay, the target named is T1, rhesus PCSK9 (rhesus, UniProt A8T666 31-692, limits assumed).
T1 construct: A rhesus PCSK9-His from Sino Biological is named only for the ELISA of Section 4.3.2; also called monkey PCSK9; rhesus PCSK9-His
The assay is described as follows: SPR, Biacore T200, antibody captured, monkey PCSK9 as analyte. How it is done:
(§1) Antibody binding affinity to human and rhesus PCSK9 was detected by SPR assay using Biacore T200. Each antibody was captured on a Protein A or or anti-human IgG Fc antibody immobilized CM5 sensor chip (GE). Human or rhesus PCSK9 at different concentrations were injected over the sensor chip at a flow rate of 30 μL/min for an association phase of 180 s, followed by 1200 s dissociation. The chip was regenerated by 2 M MgCl₂ after each binding cycle.
(§2) The sensorgrams for blank surface and buffer channel were subtracted from the test sensorgrams. The experimental data was fitted by 1:1 model using Langmiur analysis. Molecular weight of 85 KDa was used to calculate the molar concentration of analyte.
(§3) Kinetic affinities of antibody leads were measured by SPR assay.

Assay [1] has as its target T2, human PCSK9 (Proprotein Convertase Subtilisin/Kexin type 9) (human, UniProt Q8NBP7 31-692, biotin label in the ELISA formats (site not stated)). Kind of assay: cell-based or functional assay.
For assay [2], the target named is T3, human PCSK9-mFc-biotin (human, UniProt Q8NBP7 31-692, biotin label (site not stated)).
T3 construct: not shown: murine Fc (mFc) fused at the C-terminus
Kind of assay: competitive ELISA, blocking of PCSK9 binding to LDL-R.

The target in assay [3] is T2, human PCSK9 (Proprotein Convertase …). Kind of assay: binding ELISA on human PCSK9. Background: In an ELISA, binding on a coated surface is turned into a signal by an enzyme label.
Assay [4] has the same target. The assay is described as follows: SPR, Biacore T200, antibody captured, PCSK9 as analyte. How it is done: as §1, §2, §3
The target is the same in assay [5]. Kind of assay: cell-based or functional assay. The source holds these as a separate data set.
The target of assay [6] is mutant human PCSK9 (D374Y) (human, UniProt Q8NBP7 31-692). Kind of assay: cell-based or functional assay.
Assay [7] concerns the target T2, human PCSK9 (Proprotein Convertase …). The assay is described as follows: SPR.
Assay [8] shares this target. The assay is described as follows: SPR. This is another data set of the same source.
Assay [9] shares this target. The assay is described as follows: ELISA on biotin-labeled PCSK9 captured on streptavidin, antibody diluted from human serum after 0 to 14 days at 37 C.
The target is the same in assay [10]. The assay is described as follows: ELISA on streptavidin-captured PCSK9-biotin. The method, then: Binding assay by ELISA: Plates (Nunc) were coated with Streptavidin at 1 μg/ml overnight at 4° C. After blocking and washing, 250 ng/ml PCSK9-biotin was added and incubated for 1 h. Then hybridoma supernatants were transferred to the plates and incubate at room temperature for 1 h. The plates were then washed and subsequently incubated with secondary antibody goat anti rat IgG1 HRP (Bethyl) and goat anti rat IgG2b HRP (Bethyl) for 45 min. After washing, TMB substrate was added and the interaction was stopped by 2M HCl. The absorbance at 450 nm was read using a microplate reader (Molecular Device).
The activities of reference antibodies 12H11.1.uIgG4K and 24B9.1.uIgG4L binding to human PCSK9 were confirmed by ELISA (FIG. 29), according to the method described in Section 2.4 Hybridoma screening of EXAMPLE 2.

The target of assay [11] is T3, human PCSK9-mFc-biotin. The assay is described as follows: competitive ELISA, blocking of PCSK9-mFc-biotin binding to coated LDL-R. The method, then:
Blocking assay by ELISA: Plates (Nunc) were coated with LDL-R overnight at 4° C. Hybridoma supernatants were mixed with 250 ng/ml PCSK9-mFc-biotin and incubated at 4° C. overnight. After blocking and washing, the mixture were added to the plates and incubated for 1 h. The plates were then washed and subsequently incubated with streptavidin- HRP. After washing, TMB substrate was added and the interaction was stopped by 2M HCl. The absorbance at 450 nm was read using a microplate reader (Molecular Device).
The activities of reference antibodies 12H11.1.uIgG4K and 24B9.1.uIgG4L to blocking the binding of PCSK9 to LDLR were evaluated by competitive ELISA (FIG. 30) according to the methods described in Section 2.4 Hybridoma screening of EXAMPLE 2.

Assay [12] addresses T2, human PCSK9 (Proprotein Convertase …). Kind of assay: SPR, Biacore T200, antibody captured, PCSK9 as analyte. The method, then: as §1, §2
The source holds these as a separate data set. (In general: Surface plasmon resonance follows binding to a sensor surface in real time, without labels.)

The target is the same in assay [13]. Kind of assay: cell-based or functional assay. The source holds these as a separate data set.

B1: 17.72.3-uAb2-IgG4K (antibody, V domains shown)
VH: QVQLQESGPGLVKPSGTLSLTCAVSGGSIRSYNWWSWVRQPPGEGLEWIGEIHHSGTTNYNPSLKSRVTISVDKSKNQFSLKLSSVTAADTAVYYCARDYSGSYFDYWGQGTLVTVSS
VL: EVVLTQSPATLSLSPGERATLSCRTSQSLSSYVAWSQQKPGQAPRLLIYDASKRATGVPARFSGSGSGTDFTLTISNLEPEDFAVYYCHQRGNWMSSFGQGTKLEIK
notes: human IgG4 constant region, kappa light chain
Turning to B1, in the assay with rhesus PCSK9, binding was put at a Kd of 20.5 nM, the koff (commonly the rate constant with which the complex falls apart) worked out at 0.00226 s⁻¹ and the kon (usually the rate constant with which the complex forms) is 110000 M⁻¹ s⁻¹. In addition, the “IC50, LDL-uptake assay in HepG2” value in assay [1] amounted to 106 nM. In addition, the IC50 (as a rule, the concentration that gives 50% inhibition) in the assay with human PCSK9-mFc-biotin [2] was 1.67 nM. In assay [3], the EC50 – broadly, the concentration at which the effect is half-maximal – came out at 0.036 nM. In [4], the affinity, expressed as Kd, was 3.42 nM; the koff stood at 4.68e-05 s⁻¹; the kon was determined as 13700 M⁻¹ s⁻¹.

B2: 40409 (hIgG2) (antibody, V domains shown)
VH: QLNLQQSGPGLVNPSQTLSLTCAISGGSVSSNSAAWNWIRQSPSRGLEWLGRIYSRSKWYHDYAVSVKGRITINPDTSKNQFFLQLNSVTPEDTAVYYCARDWETIIWGDDGPNYYNYGLDVWGQGTTVTVSS
VL: DIQMTQSPSSLSASVGDRVTITCRASQGIRNDLGWYQQKPGKAPKRLIYGASSLQSGVPSRFSGSGSGTEFTLTISSLQPEDFATYYCLQHNNYLWTFGQGTKVEIK
On to B2, for which, in assay [5], the “IC50 of LDL-uptake restoration, HepG2 cells, PCSK9 (WT)” value was 38.3 nM and the “IC50 of LDL-uptake restoration, Huh-7 cells, PCSK9 (WT)” value is 63.7 nM. For the same molecule, in [6], the “IC50 of LDL-uptake restoration, HepG2 cells, PCSK9 (D374Y)” value was 2.3 nM and the “IC50 of LDL-uptake restoration, Huh-7 cells, PCSK9 (D374Y)” value was 2.7 nM.

B3: 40409 (hIgG4) (antibody, V domains shown)
VH: B2 VH
VL: B2 VL
notes: human IgG4 constant region
For B3, in the assay with rhesus PCSK9, binding was characterised by a dissociation constant (Kd) of 0.413 nM, the koff came to 0.000939 s⁻¹ and the kon was determined as 2.27e+06 M⁻¹ s⁻¹. For the same molecule, in [7], the “fold further affinity improvement (over B4G2)” value came out at 2 fold and the “fold higher affinity compared to BMK.115” value turned out to be 2 fold. In the assay with human PCSK9-mFc-biotin [2], this molecule registered an IC50 of 1.75 nM. For the same molecule, the EC50 in [3] was determined as 0.024 nM. Also, in [8], the Kd – broadly, the equilibrium constant for the complex coming apart – was determined as 0.0523 nM; the koff was determined as 9.05e-05 s⁻¹; the kon is 1.73e+06 M⁻¹ s⁻¹. Besides, in [4], binding was put at a Kd of 0.0523 nM, the koff was 9.05e-05 s⁻¹ and the kon was determined as 1.73e+06 M⁻¹ s⁻¹.

B4: 18.156.8 (hIgG4) (antibody, V domains shown)
VH: QVQLVESGGGVVQPGRSLRLSCAASGFTFSSYGMHWVRQAPGKGLEWMAVIWYDGTNKYYADSVKGRFTISRDNSKNTVYLQMNSLRAEDTAVYYCAREKGLDWGQGTLVTVSS
VL: not shown
notes: as for B1
In the case of B4, the “IC50 of LDL-uptake restoration, HepG2 cells, PCSK9 (WT)” value in [5] was determined as 65.1 nM. For the same molecule, the “IC50 of LDL-uptake restoration, Huh-7 cells, PCSK9 (WT)” value in [5] came to 76.1 nM. In addition, the “IC50 of LDL-uptake restoration, HepG2 cells, PCSK9 (D374Y)” value in [6] came out at 10.8 nM. In [6], the “IC50 of LDL-uptake restoration, Huh-7 cells, PCSK9 (D374Y)” value worked out at 5.2 nM. For the same molecule, in assay [9], the EC50 (read off the curve) (in general, the concentration that produces a half-maximal response) was roughly 0.1 nM. Besides, the Kd worked out at 0.0371 nM with rhesus PCSK9, 0.589 nM in assay [4] and 0.0688 nM in [12]. Further, the koff turned out to be 3.19e-05 s⁻¹ with rhesus PCSK9, 0.000146 s⁻¹ in assay [4] and 4.47e-05 s⁻¹ in assay [12]. The kon with rhesus PCSK9 came to 861000 M⁻¹ s⁻¹; in [4] it was 248000 M⁻¹ s⁻¹; in [12], 649000 M⁻¹ s⁻¹. Moreover, the IC50 was 1.22 nM in the assay with human PCSK9-mFc-biotin [2] and 0.97 nM with human PCSK9-mFc-biotin [11]. In addition, the EC50 worked out at 0.028 nM in assay [3] and 0.034 nM in assay [10]. Besides, the “EC50, LDL-uptake assay in HepG2” value in [13] was found to be 156 nM.

B5: 15.14.2-uAb-IgG4L (antibody, V domains shown)
VH: EVQMLESGGGLVQPGGSLRLSCAVSGFTFSRFAMSWVRQAPGKGLDWVSSISDNAGRTYFADSVKGRFTISRDNSKNTLYLQMNSLRADDTAVYYCAKLSNWGPYGMDVWGQGTTVTVSS
VL: QSALTQPPSASGSPGQSVTISCTGTSSDVGYYNYVSWYQQHPGEAPKLMIYEVNKRPSGVPDRFSGSKSGSTASLTVSGLQAVDEADYYCSSYAGSKNFVVFGGGTKLTVL
notes: human IgG4 constant region, lambda light chain
On to B5, for which, in the assay with rhesus PCSK9, binding was put at a Kd of 0.687 nM, the koff is 0.00031 s⁻¹ and the kon was 452000 M⁻¹ s⁻¹. Further, the “IC50, LDL-uptake assay in HepG2” value in assay [1] is 80 nM. Further, the 50% inhibitory concentration (IC50) with human PCSK9-mFc-biotin [2] came to 1.12 nM. The same molecule returned an EC50 in [3] of 0.031 nM. In assay [4], this molecule came in with a Kd of 0.25 nM, a koff of 8.09e-05 s⁻¹ and a kon of 324000 M⁻¹ s⁻¹.

B6: 19.3.8-uAb1-IgG4L (antibody, V domains shown)
VH: QVQLVQSGAEVKKPGASVKVSCKASGYTFTGYYINWVRQAPGQGLEWMGRINPNSGGTNYAQKFQGRVTMTRDTSINTAYMELSRLRSDDTAVYFCASWEGTVTTWDFYYYYGMDVWGQGTTVTVSS
VL: QSALTQPASVSGSPGQSITISCTGTSSDVDTYNYVSWYQHHPGKAPKLIIFDVSNRPSGVSNRFSGSKSGNTASLTISGLQAEDEADYYCSSYTSSSTLVVFGGGTKLTVL
notes: as for B5
Take B6: in the assay with rhesus PCSK9, binding was characterised by a dissociation constant (Kd) of 7.16 nM, the koff was 0.00441 s⁻¹ and the kon came to 616000 M⁻¹ s⁻¹. For the same molecule, the “IC50, LDL-uptake assay in HepG2” value in assay [1] stood at 115 nM. In the assay with human PCSK9-mFc-biotin [2], this molecule showed an IC50 of 2 nM. In addition, in [3], the EC50 was 0.13 nM. In assay [4], this molecule yielded a Kd of 17.5 nM, a koff of 0.000271 s⁻¹ and a kon of 15400 M⁻¹ s⁻¹.

The values are drawn from patent US20190233542A1 (WUXI BIOLOGICS IRELAND, published 2019).
